B1: aCD3-aHER2-mxb (bispecific antibody)
chain 1: EVQLLEQSGAELVRPGALVKLSCKASGFKIKDYFVNWVKQRPEQGLEWIGWIDPENDNSLYGPNFQDKASITADTSSNTGYLQLSGLTSEDTAVYYCALYYGSRGDAMDYWGQGTTVTVSSGGGGSGGGGSGGGGSELVMTQTPSSLSASLGDRVTISCRASQDISNYLNWYQQKPDGTVKLLIYYTSRLHSGVPSRFSGSGSGTDYSLTISNLEQEDIATYFCQQGNTLPLTFGAGTKLEIKAAAEPKSSDKTHTCPPCPAPEAAGGPSVFLFPPKPKDTLMISRTPEVTCVVVDVSHEDPEVKFNWYVDGVEVHNAKTKPREEQYNSTYRVVSVLTVLHQDWLNGKEYKCKVSNKALPAPIEKTISKAKGQPREPQVYTLPPSRKEMTKNQVSLTCLVKGFYPSDIAVEWESNGQPENNYKTTPPVLKSDGSFFLYSKLTVDKSRWQQGNVFSCSVMHEALHNHYTQKSLSLSPGKAAAHHHHHH
chain 2: not shown
B2: CD3ε(1-27)-MMP-2csV3-aCD3-aHER2-Xbody (bispecific antibody)
chain 1: not shown
chain 2: QDGNEEMGGITQTPYKVSISGTTVILTGGGGSGGGGSGGGGSPLGLAGEVQLVESGGGLVQPGGSLKLSCAASGFTFNSYAMNWVRQAPGKGLEWVARIRSKYNNYATYYADSVKGRFTISRDDSKNTAYLQMNNLKTEDTAVYYCVRHGNFGNSYVSWWAYWGQGTLVTVSSGGGGSGGGGSELVMTQTPSSLSASLGDRVTISCRASQDISNYLNWYQQKPDGTVKLLIYYTSRLHSGVPSRFSGSGSGTDYSLTISNLEQEDIATYFCQQGNTLPLTFGAGTKLEIKASTKGPSVFPLAPCSRSTSESTAALGCLVKDYFPEPVTVSWNSGALTSGVHTFPAVLQSSGLYSLSSVVTVPSSNFGTQTYTCNVDHKPSNTKVDKTVGGGGSAAAEPKSSDKTHTCPPCPAPEAAGGPSVFLFPPKPKDTLMISRTPEVTCVVVDVSHEDPEVKFNWYVDGVEVHNAKTKPREEQYNSTYRVVSVLTVLHQDWLNGKEYKCKVSNKALPAPIEKTISKAKGQPREPQVYTLPPSREEMTKNQVSLTCLVKGFYPSDIAVEWESNGQPENNYDTTPPVLDSDGSFFLYSDLTVDKSRWQQGNVFSCSVMHEALHNHYTQKSLSLSPGK
B3: CD3ε(1-27)-MMP-2csV2-aCD3-aHER2-Xbody, digested with MMP-2 (bispecific antibody)
chain 1: not shown
chain 2: MLSQSEVQLVESGGGLVQPGGSLKLSCAASGFTFNSYAMNWVRQAPGKGLEWVARIRSKYNNYATYYADSVKGRFTISRDDSKNTAYLQMNNLKTEDTAVYYCVRHGNFGNSYVSWWAYWGQGTLVTVSSGGGGSGGGGSELVMTQTPSSLSASLGDRVTISCRASQDISNYLNWYQQKPDGTVKLLIYYTSRLHSGVPSRFSGSGSGTDYSLTISNLEQEDIATYFCQQGNTLPLTFGAGTKLEIKASTKGPSVFPLAPCSRSTSESTAALGCLVKDYFPEPVTVSWNSGALTSGVHTFPAVLQSSGLYSLSSVVTVPSSNFGTQTYTCNVDHKPSNTKVDKTVGGGGSAAAEPKSSDKTHTCPPCPAPEAAGGPSVFLFPPKPKDTLMISRTPEVTCVVVDVSHEDPEVKFNWYVDGVEVHNAKTKPREEQYNSTYRVVSVLTVLHQDWLNGKEYKCKVSNKALPAPIEKTISKAKGQPREPQVYTLPPSREEMTKNQVSLTCLVKGFYPSDIAVEWESNGQPENNYDTTPPVLDSDGSFFLYSDLTVDKSRWQQGNVFSCSVMHEALHNHYTQKSLSLSPGK
B4: CD3ε(1-27)-aCD3-aHER2-Xbody (bispecific antibody)
chain 1: not shown
chain 2: QDGNEEMGGITQTPYKVSISGTTVILTGGGGSGGGGSGGGGSEVQLVESGGGLVQPGGSLKLSCAASGFTFNSYAMNWVRQAPGKGLEWVARIRSKYNNYATYYADSVKGRFTISRDDSKNTAYLQMNNLKTEDTAVYYCVRHGNFGNSYVSWWAYWGQGTLVTVSSGGGGSGGGGSELVMTQTPSSLSASLGDRVTISCRASQDISNYLNWYQQKPDGTVKLLIYYTSRLHSGVPSRFSGSGSGTDYSLTISNLEQEDIATYFCQQGNTLPLTFGAGTKLEIKASTKGPSVFPLAPCSRSTSESTAALGCLVKDYFPEPVTVSWNSGALTSGVHTFPAVLQSSGLYSLSSVVTVPSSNFGTQTYTCNVDHKPSNTKVDKTVGGGGSAAAEPKSSDKTHTCPPCPAPEAAGGPSVFLFPPKPKDTLMISRTPEVTCVVVDVSHEDPEVKFNWYVDGVEVHNAKTKPREEQYNSTYRVVSVLTVLHQDWLNGKEYKCKVSNKALPAPIEKTISKAKGQPREPQVYTLPPSREEMTKNQVSLTCLVKGFYPSDIAVEWESNGQPENNYDTTPPVLDSDGSFFLYSDLTVDKSRWQQGNVFSCSVMHEALHNHYTQKSLSLSPGK
B5: CD3ε(1-27)-MMP-2csV3-aCD3-aHER2-Xbody, digested with MMP-2 (bispecific antibody)
chain 1: not shown
chain 2: LAGEVQLVESGGGLVQPGGSLKLSCAASGFTFNSYAMNWVRQAPGKGLEWVARIRSKYNNYATYYADSVKGRFTISRDDSKNTAYLQMNNLKTEDTAVYYCVRHGNFGNSYVSWWAYWGQGTLVTVSSGGGGSGGGGSELVMTQTPSSLSASLGDRVTISCRASQDISNYLNWYQQKPDGTVKLLIYYTSRLHSGVPSRFSGSGSGTDYSLTISNLEQEDIATYFCQQGNTLPLTFGAGTKLEIKASTKGPSVFPLAPCSRSTSESTAALGCLVKDYFPEPVTVSWNSGALTSGVHTFPAVLQSSGLYSLSSVVTVPSSNFGTQTYTCNVDHKPSNTKVDKTVGGGGSAAAEPKSSDKTHTCPPCPAPEAAGGPSVFLFPPKPKDTLMISRTPEVTCVVVDVSHEDPEVKFNWYVDGVEVHNAKTKPREEQYNSTYRVVSVLTVLHQDWLNGKEYKCKVSNKALPAPIEKTISKAKGQPREPQVYTLPPSREEMTKNQVSLTCLVKGFYPSDIAVEWESNGQPENNYDTTPPVLDSDGSFFLYSDLTVDKSRWQQGNVFSCSVMHEALHNHYTQKSLSLSPGK
B6: CD3ε(1-27)-MMP-2csV2-aCD3-aHER2-Xbody (bispecific antibody)
chain 1: not shown
chain 2: QDGNEEMGGITQTPYKVSISGTTVILTGGGGSGGGGSGGGGSGGPLGMLSQSEVQLVESGGGLVQPGGSLKLSCAASGFTFNSYAMNWVRQAPGKGLEWVARIRSKYNNYATYYADSVKGRFTISRDDSKNTAYLQMNNLKTEDTAVYYCVRHGNFGNSYVSWWAYWGQGTLVTVSSGGGGSGGGGSELVMTQTPSSLSASLGDRVTISCRASQDISNYLNWYQQKPDGTVKLLIYYTSRLHSGVPSRFSGSGSGTDYSLTISNLEQEDIATYFCQQGNTLPLTFGAGTKLEIKASTKGPSVFPLAPCSRSTSESTAALGCLVKDYFPEPVTVSWNSGALTSGVHTFPAVLQSSGLYSLSSVVTVPSSNFGTQTYTCNVDHKPSNTKVDKTVGGGGSAAAEPKSSDKTHTCPPCPAPEAAGGPSVFLFPPKPKDTLMISRTPEVTCVVVDVSHEDPEVKFNWYVDGVEVHNAKTKPREEQYNSTYRVVSVLTVLHQDWLNGKEYKCKVSNKALPAPIEKTISKAKGQPREPQVYTLPPSREEMTKNQVSLTCLVKGFYPSDIAVEWESNGQPENNYDTTPPVLDSDGSFFLYSDLTVDKSRWQQGNVFSCSVMHEALHNHYTQKSLSLSPGK
B7: aCD3-aHER2-Xbody (bispecific antibody)
chain 1: not shown
chain 2: EVQLVESGGGLVQPGGSLKLSCAASGFTFNSYAMNWVRQAPGKGLEWVARIRSKYNNYATYYADSVKGRFTISRDDSKNTAYLQMNNLKTEDTAVYYCVRHGNFGNSYVSWWAYWGQGTLVTVSSGGGGSGGGGSELVMTQTPSSLSASLGDRVTISCRASQDISNYLNWYQQKPDGTVKLLIYYTSRLHSGVPSRFSGSGSGTDYSLTISNLEQEDIATYFCQQGNTLPLTFGAGTKLEIKASTKGPSVFPLAPCSRSTSESTAALGCLVKDYFPEPVTVSWNSGALTSGVHTFPAVLQSSGLYSLSSVVTVPSSNFGTQTYTCNVDHKPSNTKVDKTVGGGGSAAAEPKSSDKTHTCPPCPAPEAAGGPSVFLFPPKPKDTLMISRTPEVTCVVVDVSHEDPEVKFNWYVDGVEVHNAKTKPREEQYNSTYRVVSVLTVLHQDWLNGKEYKCKVSNKALPAPIEKTISKAKGQPREPQVYTLPPSREEMTKNQVSLTCLVKGFYPSDIAVEWESNGQPENNYDTTPPVLDSDGSFFLYSDLTVDKSRWQQGNVFSCSVMHEALHNHYTQKSLSLSPGK

What follows are binders tested against HER2 (human, UniProt P04626 23-1255) (assay: cell-based or functional assay).

In order of rising “EC50 Cytolysis (ng/mL), -MMP2; TDCC of SKOV-3 cells with pan T cells” value:
1. B7  0.128 ng/mL
2. B1  0.184 ng/mL
3. B6  2.62 ng/mL
4. B2  5.49 ng/mL
5. B4  6.12 ng/mL

In order of rising “EC50 Cytolysis (ng/mL), +MMP2; TDCC of SKOV-3 cells with pan T cells” value:
1. B5  0.205 ng/mL
2. B3  0.22 ng/mL
3. B4  6.73 ng/mL

Reference: patent publication US20170247476A1 (Amgen, published 2017)
